Experimental data taken from patent US20160264649A1.

Assays:
Assay in all cases: cell-based or functional assay
[1] = target: HIV-1 Env of isolate 98IN022 (HIV-1)
[2] = target: HIV-1 Env of isolate MGRM-Chronic-B-023 (HIV-1)
[3] = target: HIV-1 Env of isolate MGRM-Chronic-B-001 (HIV-1)
[4] = target: HIV-1 Env of isolate 93TH305 (HIV-1)
[5] = target: HIV-1 Env of isolate MGRM-Chronic-B-008 (HIV-1)
[6] = target: HIV-1 Env of isolate 93IN905 (HIV-1)
[7] = target: HIV-1 Env of isolate QH0692.42 (HIV-1)
[8] = target: HIV-1 Env of isolate JRCSF (HIV-1) (UniProt P20871)
[9] = target: HIV-1 Env of isolate MGRM-Chronic-B-010 (HIV-1)
[10] = target: HIV-1 Env of isolate CAAN.A2 (HIV-1)
[11] = target: HIV-1 Env of isolate MGRM-Chronic-B-002 (HIV-1)
[12] = target: HIV-1 Env of isolate NL43 (HIV-1)
[13] = target: HIV-1 Env of isolate VLGCB3 (HIV-1)
[14] = target: HIV-1 Env of isolate TRJ04551.58 (HIV-1)
[15] = target: HIV-1 Env of isolate MGRM-Chronic-B-020 (HIV-1)
[16] = target: HIV-1 Env of isolate MGRM-Chronic-B-011 (HIV-1)
[17] = target: HIV-1 Env of isolate 92 BR 020 (HIV-1)
[18] = target: HIV-1 Env of isolate MGRM-Chronic-B-024 (HIV-1)
[19] = target: HIV-1 Env of isolate MGRM-Chronic-B-003 (HIV-1)
[20] = target: HIV-1 Env of isolate PVO.4 (HIV-1)
[21] = target: HIV-1 Env of isolate SF162 (HIV-1) (UniProt P19550)
[22] = target: HIV-1 Env of isolate 93MW959 (HIV-1)
[23] = target: HIV-1 Env of isolate THR0.18 (HIV-1)
[24] = target: HIV-1 Env of isolate MGRM-Chronic-B-004 (HIV-1)
[25] = target: HIV-1 Env of isolate APV_13 (HIV-1)
[26] = target: HIV-1 Env of isolate APV_6 (HIV-1)
[27] = target: HIV-1 Env of isolate TRO.11 (HIV-1)
[28] = target: HIV-1 Env of isolate 6535.3 (HIV-1)
[29] = target: HIV-1 Env of isolate MGRM-Chronic-B-018 (HIV-1)
[30] = target: HIV-1 Env of isolate MGRM-Chronic-B-012 (HIV-1)
[31] = target: HIV-1 Env of isolate 97ZA012 (HIV-1)
[32] = target: HIV-1 Env of isolate SC422661.8 (HIV-1)
[33] = target: HIV-1 Env of isolate JRFL (HIV-1)
[34] = target: HIV-1 Env of isolate MGRM-Chronic-B-017 (HIV-1)
[35] = target: HIV-1 Env of isolate APV_17 (HIV-1)
[36] = target: HIV-1 Env of pseudovirus isolate MGRM-G-015 (subtype G) (HIV-1)
[37] = target: HIV-1 Env of isolate 92UG005 (subtype D) (HIV-1)
[38] = target: HIV-1 Env of pseudovirus isolate MGRM-G-004 (subtype G) (HIV-1)
[39] = target: envelope of aMLV pseudovirus (negative control)
[40] = target: HIV-1 Env of isolate 92UG001 (subtype D) (HIV-1)
[41] = target: HIV-1 Env of isolate 92UG046 (subtype D) (HIV-1)
[42] = target: HIV-1 Env of pseudovirus isolate MGRM-G-011 (subtype G) (HIV-1)
[43] = target: HIV-1 Env of isolate 98CN009 (subtype CRF07_BC) (HIV-1)
[44] = target: HIV-1 Env of pseudovirus isolate MGRM-G-028 (subtype G) (HIV-1)
[45] = target: HIV-1 Env of pseudovirus isolate MGRM-G-017 (subtype G) (HIV-1)
[46] = target: HIV-1 Env of pseudovirus isolate MGRM-G-013 (subtype G) (HIV-1)
[47] = target: HIV-1 Env of pseudovirus isolate MGRM-G-019 (subtype G) (HIV-1)
[48] = target: HIV-1 Env of pseudovirus isolate MGRM-G-014 (subtype G) (HIV-1)
[49] = target: HIV-1 Env of pseudovirus isolate MGRM-G-001 (subtype G) (HIV-1)
[50] = target: HIV-1 Env of pseudovirus isolate MGRM-G-006 (subtype G) (HIV-1)
[51] = target: HIV-1 Env of pseudovirus isolate MGRM-G-027 (subtype G) (HIV-1)
[52] = target: HIV-1 Env of isolate 98CN006 (subtype CRF08_BC) (HIV-1)
[53] = target: HIV-1 Env of pseudovirus isolate MGRM-G-024 (subtype G) (HIV-1)
[54] = target: HIV-1 Env of pseudovirus isolate MGRM-G-016 (subtype G) (HIV-1)
[55] = target: HIV-1 Env of isolate 92UG024 (subtype D) (HIV-1)
[56] = target: HIV-1 Env of pseudovirus isolate MGRM-G-009 (subtype G) (HIV-1)
[57] = target: HIV-1 Env of pseudovirus isolate MGRM-G-025 (subtype G) (HIV-1)

PGT-141 (antibody), sequence (VH): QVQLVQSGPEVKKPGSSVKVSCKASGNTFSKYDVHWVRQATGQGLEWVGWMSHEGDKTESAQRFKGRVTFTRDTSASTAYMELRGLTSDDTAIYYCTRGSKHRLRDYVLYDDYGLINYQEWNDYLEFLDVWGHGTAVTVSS
PGT-141 (antibody), sequence (VL): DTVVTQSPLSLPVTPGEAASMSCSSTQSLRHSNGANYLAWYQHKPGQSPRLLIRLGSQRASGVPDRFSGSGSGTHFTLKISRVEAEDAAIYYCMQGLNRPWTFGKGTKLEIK
PGT-144 (antibody), sequence (VH): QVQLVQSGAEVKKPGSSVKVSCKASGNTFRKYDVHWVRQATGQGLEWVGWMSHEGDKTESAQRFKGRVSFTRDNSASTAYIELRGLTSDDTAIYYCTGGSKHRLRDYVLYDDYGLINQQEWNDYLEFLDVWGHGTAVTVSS
PGT-144 (antibody), sequence (VL): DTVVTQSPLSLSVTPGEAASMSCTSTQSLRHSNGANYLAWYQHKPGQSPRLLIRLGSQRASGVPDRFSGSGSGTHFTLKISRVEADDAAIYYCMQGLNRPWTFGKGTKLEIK
PGT-136 monoclonal antibody (5329_C19; 5366_P21), sequence (VH): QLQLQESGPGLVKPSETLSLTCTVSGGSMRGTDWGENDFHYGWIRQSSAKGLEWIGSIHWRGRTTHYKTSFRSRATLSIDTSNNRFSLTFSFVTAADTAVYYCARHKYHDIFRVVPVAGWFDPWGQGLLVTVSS
PGT-136 monoclonal antibody (5329_C19; 5366_P21), sequence (VL): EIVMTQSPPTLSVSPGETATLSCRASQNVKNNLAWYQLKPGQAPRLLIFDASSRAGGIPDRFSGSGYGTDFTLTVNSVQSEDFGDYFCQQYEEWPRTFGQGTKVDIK
PGT-142 (antibody), sequence (VH): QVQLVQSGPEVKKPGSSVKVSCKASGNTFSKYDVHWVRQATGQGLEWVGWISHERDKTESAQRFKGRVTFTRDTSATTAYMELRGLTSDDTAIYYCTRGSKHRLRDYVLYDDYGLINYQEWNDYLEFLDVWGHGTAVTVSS

PGT-136 monoclonal antibody (5329_C19; 5366_P21)
neutralization IC50 [1]: 13.6 µg/mL | neutralization IC50 [2]: > 50 µg/mL | neutralization IC50 [3]: > 50 µg/mL | neutralization IC50 [4]: 20.2 µg/mL | neutralization IC50 [5]: > 50 µg/mL | neutralization IC50 [6]: 0.011 µg/mL | neutralization IC50 [7]: > 50 µg/mL | neutralization IC50 [8]: > 50 µg/mL | neutralization IC50 [9]: > 50 µg/mL | neutralization IC50 [10]: > 50 µg/mL | neutralization IC50 [11]: > 50 µg/mL | neutralization IC50 [12]: 27.7 µg/mL | neutralization IC50 [13]: > 50 µg/mL | neutralization IC50 [14]: > 50 µg/mL | neutralization IC50 [15]: > 50 µg/mL | neutralization IC50 [16]: > 50 µg/mL | neutralization IC50 [17]: 8.61 µg/mL | neutralization IC50 [18]: > 50 µg/mL | neutralization IC50 [19]: > 50 µg/mL | neutralization IC50 [20]: > 50 µg/mL | neutralization IC50 [21]: 0.482 µg/mL | neutralization IC50 [22]: > 50 µg/mL | neutralization IC50 [23]: > 50 µg/mL | neutralization IC50 [24]: > 50 µg/mL | neutralization IC50 [25]: > 50 µg/mL | neutralization IC50 [26]: > 50 µg/mL | neutralization IC50 [27]: 0.073 µg/mL | neutralization IC50 [28]: > 50 µg/mL | neutralization IC50 [29]: > 50 µg/mL | neutralization IC50 [30]: 43.1 µg/mL | neutralization IC50 [31]: > 50 µg/mL | neutralization IC50 [32]: > 50 µg/mL | neutralization IC50 [33]: > 50 µg/mL | neutralization IC50 [34]: > 50 µg/mL | neutralization IC50 [35]: > 50 µg/mL

PGT-142 (antibody)
IC50 [36]: > 50 µg/mL | IC50 (neutralization) [37]: > 50 µg/mL | IC50 [38]: > 50 µg/mL | IC50 [39]: > 50 µg/mL | IC50 (neutralization) [40]: > 50 µg/mL | IC50 (neutralization) [41]: > 50 µg/mL | IC50 [42]: 0.046 µg/mL | IC50 (neutralization) [43]: 4 µg/mL | IC50 [44]: 30.3 µg/mL | IC50 [45]: 0.125 µg/mL | IC50 [46]: > 50 µg/mL | IC50 [47]: 5.95 µg/mL | IC50 [48]: 0.076 µg/mL | IC50 [49]: 0.362 µg/mL | IC50 [50]: 0.019 µg/mL | IC50 [51]: > 50 µg/mL | IC50 (neutralization) [52]: > 50 µg/mL | IC50 [53]: 0.054 µg/mL | IC50 [54]: 8.17 µg/mL | IC50 (neutralization) [55]: > 50 µg/mL | IC50 [56]: 2.81 µg/mL | IC50 [57]: > 50 µg/mL

PGT-144 (antibody)
IC50 [36]: > 50 µg/mL | IC50 (neutralization) [37]: > 50 µg/mL | IC50 [38]: > 50 µg/mL | IC50 [39]: > 50 µg/mL | IC50 (neutralization) [40]: > 50 µg/mL | IC50 (neutralization) [41]: > 50 µg/mL | IC50 [42]: 1.58 µg/mL | IC50 (neutralization) [43]: > 50 µg/mL | IC50 [44]: > 50 µg/mL | IC50 [45]: 9.97 µg/mL | IC50 [46]: > 50 µg/mL | IC50 [47]: > 50 µg/mL | IC50 [48]: 0.562 µg/mL | IC50 [49]: > 50 µg/mL | IC50 [50]: 3.84 µg/mL | IC50 [51]: > 50 µg/mL | IC50 (neutralization) [52]: > 50 µg/mL | IC50 [53]: 7.92 µg/mL | IC50 [54]: > 50 µg/mL | IC50 (neutralization) [55]: > 50 µg/mL | IC50 [56]: > 50 µg/mL | IC50 [57]: > 50 µg/mL

PGT-128 monoclonal antibody (5114_A19)
neutralization IC50 [1]: 0.014 µg/mL | neutralization IC50 [2]: > 50 µg/mL | neutralization IC50 [3]: > 50 µg/mL | neutralization IC50 [4]: 0.006 µg/mL | neutralization IC50 [5]: 0.143 µg/mL | neutralization IC50 [6]: 0.009 µg/mL | neutralization IC50 [7]: 0.029 µg/mL | neutralization IC50 [8]: 0.003 µg/mL | neutralization IC50 [9]: 0.004 µg/mL | neutralization IC50 [10]: 1.48 µg/mL | neutralization IC50 [11]: 0.036 µg/mL | neutralization IC50 [12]: > 50 µg/mL | neutralization IC50 [13]: 0.012 µg/mL | neutralization IC50 [14]: 0.019 µg/mL | neutralization IC50 [15]: 0.007 µg/mL | neutralization IC50 [16]: 0.02 µg/mL | neutralization IC50 [17]: 0.009 µg/mL | neutralization IC50 [18]: > 50 µg/mL | neutralization IC50 [19]: 0.007 µg/mL | neutralization IC50 [20]: 0.005 µg/mL | neutralization IC50 [21]: 0.007 µg/mL | neutralization IC50 [22]: 0.045 µg/mL | neutralization IC50 [23]: > 50 µg/mL | neutralization IC50 [24]: 0.009 µg/mL | neutralization IC50 [25]: 0.008 µg/mL | neutralization IC50 [26]: 0.007 µg/mL | neutralization IC50 [27]: 0.018 µg/mL | neutralization IC50 [28]: 0.011 µg/mL | neutralization IC50 [29]: 0.02 µg/mL | neutralization IC50 [30]: 0.026 µg/mL | neutralization IC50 [31]: 0.019 µg/mL | neutralization IC50 [32]: 1.58 µg/mL | neutralization IC50 [33]: 0.007 µg/mL | neutralization IC50 [34]: > 50 µg/mL | neutralization IC50 [35]: 0.016 µg/mL

PGT-141 (antibody)
IC50 [36]: > 50 µg/mL | IC50 (neutralization) [37]: > 50 µg/mL | IC50 [38]: > 50 µg/mL | IC50 [39]: > 50 µg/mL | IC50 (neutralization) [40]: > 50 µg/mL | IC50 (neutralization) [41]: > 50 µg/mL | IC50 [42]: 0.086 µg/mL | IC50 (neutralization) [43]: 1.28 µg/mL | IC50 [44]: 24.9 µg/mL | IC50 [45]: 0.164 µg/mL | IC50 [46]: > 50 µg/mL | IC50 [47]: 20.3 µg/mL | IC50 [48]: 0.222 µg/mL | IC50 [49]: 0.392 µg/mL | IC50 [50]: 0.043 µg/mL | IC50 [51]: > 50 µg/mL | IC50 (neutralization) [52]: > 50 µg/mL | IC50 [53]: 0.051 µg/mL | IC50 [54]: 4.69 µg/mL | IC50 (neutralization) [55]: > 50 µg/mL | IC50 [56]: 1.89 µg/mL | IC50 [57]: > 50 µg/mL
